Results reported in US20140004106A1.

Columns and labels:
[1] = biological target: 28mer peptide of the CXCR5 antigen; assay: Ag-ELISA; DS in PBS, release
[2] = biological target: 28mer peptide of the CXCR5 antigen; assay: Antigen-ELISA; PB 5 mM pH 7.50, T0
[3] = biological target: 28mer peptide of the CXCR5 antigen; assay: Ag-ELISA; DS in PBS, 25°C, 3 months
[4] = biological target: 28mer peptide of the CXCR5 antigen; assay: Antigen-ELISA; PB 10 mM pH 6.50, T0
[5] = biological target: 28mer peptide of the CXCR5 antigen; assay: Ag-ELISA; DS in PBS, -20°C, 3 months
[6] = biological target: 28mer peptide of the CXCR5 antigen; assay: Antigen-ELISA; Citrate 10 mM pH 5.00, T0
[7] = biological target: 28mer peptide of the CXCR5 antigen; assay: Antigen-ELISA; Citrate 10 mM pH 6.50, T0
[8] = biological target: 28mer peptide of the CXCR5 antigen; assay: Antigen-ELISA; standard run with LA_09_004_3
[9] = biological target: 28mer peptide of the CXCR5 antigen; assay: Antigen-ELISA; standard run with LA_09_004_6
[10] = biological target: 28mer peptide of the CXCR5 antigen; assay: Antigen-ELISA; acetate 10 mM prototype A, T0
[11] = biological target: 28mer peptide of the CXCR5 antigen; assay: Potency (Antigen ELISA); stored +5°C, initial
[12] = biological target: 28mer peptide of the CXCR5 antigen; assay: Antigen-ELISA; standard run with LA_09_27C, T0
[13] = biological target: 28mer peptide of the CXCR5 antigen; assay: Antigen-ELISA; histidine 10 mM prototype A, T0
[14] = biological target: 28mer peptide of the CXCR5 antigen; assay: Potency (Antigen ELISA); stored -20°C, initial
[15] = biological target: 28mer peptide of the CXCR5 antigen; assay: Potency (Antigen ELISA); stored +5°C, 3 months
[16] = biological target: 28mer peptide of the CXCR5 antigen; assay: Potency (Antigen ELISA); stored +25°C, initial
[17] = biological target: 28mer peptide of the CXCR5 antigen; assay: Potency (Antigen ELISA); stored +5°C, 15 months
[18] = biological target: 28mer peptide of the CXCR5 antigen; assay: Potency (Antigen ELISA); stored +25°C, 3 months
[19] = biological target: 28mer peptide of the CXCR5 antigen; assay: Potency (Antigen ELISA); stored -20°C, 18 months
[20] = biological target: 28mer peptide of the CXCR5 antigen; assay: Antigen-ELISA; PBS 155 mM, 1 h purged with N2, 24 h
[21] = biological target: 28mer peptide of the CXCR5 antigen; assay: Antigen-ELISA; PB 10 mM pH 7.00, after 1 week at +40°C
[22] = biological target: 28mer peptide of the CXCR5 antigen; assay: Antigen-ELISA; PBS 155 mM pH 6.50, after 1 week at +40°C
[23] = biological target: 28mer peptide of the CXCR5 antigen; assay: Antigen-ELISA; PBS 155 mM pH 7.50, after 1 week at +40°C
[24] = biological target: 28mer peptide of the CXCR5 antigen; assay: ELISA potency (binding); 100 mg/mL, Glycine (20), T zero
[25] = biological target: 28mer peptide of the CXCR5 antigen; assay: Antigen-ELISA; Arginine 10 mM pH 6, after 1 week at +40°C
[26] = biological target: 28mer peptide of the CXCR5 antigen; assay: Antigen-ELISA; PBS 155 mM, amber glass type II, 24 h +40°C
[27] = biological target: 28mer peptide of the CXCR5 antigen; assay: Antigen-ELISA; Acetate 10 mM pH 5.50, after 1 week at +40°C
[28] = biological target: 28mer peptide of the CXCR5 antigen; assay: Antigen-ELISA; Citrate 10 mM pH 5.00, after 1 week at +40°C
[29] = biological target: 28mer peptide of the CXCR5 antigen; assay: Antigen-ELISA; Citrate 10 mM pH 7.00, after 1 week at +40°C
[30] = biological target: 28mer peptide of the CXCR5 antigen; assay: Antigen-ELISA; Histidine 10 mM pH 5.5, after 1 week at +40°C
[31] = biological target: 28mer peptide of the CXCR5 antigen; assay: Antigen-ELISA; PBS 155 mM, polyethylene high density, 24 h +40°C
[32] = biological target: 28mer peptide of the CXCR5 antigen; assay: ELISA potency (binding); 100 mg/mL, Glycine (20), 7 days at 40°C
[33] = biological target: 28mer peptide of the CXCR5 antigen; assay: ELISA potency (binding); 100 mg/mL, Arginine (30), 7 days at 40°C
[34] = biological target: 28mer peptide of the CXCR5 antigen; assay: ELISA potency (binding); 100 mg/mL, Glycine (20) + NaCl (2), T zero
[35] = biological target: 28mer peptide of the CXCR5 antigen; assay: ELISA potency (binding); 100 mg/mL, Sucrose (60) + NaCl (2), T zero
[36] = biological target: 28mer peptide of the CXCR5 antigen; assay: Antigen-ELISA; PBS 155 mM pH 6.50, after mechanical stress 350 rpm 2.5 h
[37] = biological target: 28mer peptide of the CXCR5 antigen; assay: Antigen-ELISA; PBS 155 mM pH 7.50, after mechanical stress 350 rpm 2.5 h
[38] = biological target: 28mer peptide of the CXCR5 antigen; assay: ELISA potency (binding); 100 mg/mL, Glycine (20) + Mannitol (15), T zero
[39] = biological target: 28mer peptide of the CXCR5 antigen; assay: ELISA potency (binding); 100 mg/mL, Sucrose (60) + Mannitol (15), T zero
[40] = biological target: 28mer peptide of the CXCR5 antigen; assay: Antigen-ELISA; Citrate 10 mM pH 6.50, after mechanical stress 350 rpm 2.5 h
[41] = biological target: 28mer peptide of the CXCR5 antigen; assay: Antigen-ELISA; Citrate 10 mM pH 7.00, after mechanical stress 350 rpm 2.5 h
[42] = biological target: 28mer peptide of the CXCR5 antigen; assay: ELISA potency (binding); 100 mg/mL, Arginine (20) + NaCl (2), 7 days at 40°C
[43] = biological target: 28mer peptide of the CXCR5 antigen; assay: ELISA potency (binding); 100 mg/mL, Trehalose (60) + NaCl (2), 7 days at 40°C

B1: Lead CXCR5 Antibody (humanized IgG4 anti-CXCR5 antibody) (antibody, V domains shown)
VH: QVQLKESGPGLVAPSESLSITCTVSGFSLIDYGVNWIRQPPGKGLEWLGVIWGDGTTYYNPSLKSRLSISKDNSKSQVFLKVTSLTTDDTAMYYCARIVYWGQGTLVTVSA
VL: DIVMTQAAPSVAVTPGASVSISCRSSKSLLHSSGKTYLYWFLQRPGQSPQLLIYRLSSLASGVPDRFSGSGSGTAFTLRISRVEAEDVGVYYCMQHLEYPYTFGGGTKLEIKR
- EC50 % [1]: 100%
- EC50 % [2]: 176%
- EC50 % [3]: 108%
- EC50 % [4]: 105%
- EC50 % [5]: 93%
- EC50 % [6]: 79%
- EC50 % [7]: 59%
- EC50 % [8]: 100%
- EC50 % [9]: 100%
- EC50 % [10]: 112%
- EC50 value (in comparison to reference) [11]: 75%
- EC50 % [12]: 100%
- EC50 % [13]: 174%
- EC50 value (in comparison to reference) [14]: 75%
- EC50 value (in comparison to reference) [15]: 95%
- EC50 value (in comparison to reference) [16]: 75%
- EC50 value (in comparison to reference) [17]: 114%
- EC50 value (in comparison to reference) [18]: 96%
- EC50 value (in comparison to reference) [19]: 127%
- EC50 % [20]: 89.3%
- EC50 % [21]: 109%
- EC50 % [22]: 115%
- EC50 % [23]: 52%
- rel. potency [%] [24]: 170%
- EC50 % [25]: 99%
- EC50 % [26]: 90.1%
- EC50 % [27]: 94.9%
- EC50 % [28]: 75%
- EC50 % [29]: 111%
- EC50 % [30]: 81%
- EC50 % [31]: 157%
- rel. potency [%] [32]: 180%
- rel. potency [%] [33]: 143%
- rel. potency [%] [34]: 174%
- rel. potency [%] [35]: 165%
- EC50 % [36]: 79.3%
- EC50 % [37]: 71%
- rel. potency [%] [38]: 111%
- rel. potency [%] [39]: 205%
- EC50 % [40]: 41%
- EC50 % [41]: 101%
- rel. potency [%] [42]: 164%
- rel. potency [%] [43]: 191%
